Measurements taken from the supplement of paper PMC10567573.
± gives the standard deviation.

Assay: protein stability index of a GFP-peptide fusion (GPS, HEK-293T) (PSI 1-6); higher = more stable
Conditions: c terminus: a fixed tail appended
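Further: 24-mer peptide tiles fused after GFP, lentivirally expressed, FACS-sorted into six equal bins by GFP/DsRed ratio, decoded by Illumina sequencing, PSI is the read-weighted mean bin number.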

Row | Sequence | protein stability index (treatment: DMSO) | protein stability index (treatment: MLN4924 1 uM, 8 h)
1 | QKLYVRLFQRKLSWIKMTKLEYEE [FAN1] | 2.63 ± 1.1 | 2.44 ± 0.6
2 | HLRATEKMKTRELHRESSNFDSIY [HDAC6] | 3.18 ± 0.43 | 3.46 ± 0.2
3 | VVIDKHPVRFFVHKRPHVDFFLEV [CTDNEP1] | 2.22 ± 1.1 | 3.06 ± 0.87
4 | HFPHLLSPQIQRSAHRALYRRHVL [TMEM175] | 2.69 ± 0.26 | 2.85 ± 0.15
5 | WEQPWASEVFGPERMPPSGAARSF [PXN] | 3.73 ± 0.33 | 3.45 ± 0.11
6 | EPSIAPTSCAGNLPSRPPPLLSPL [RSPH3] | 3.72 ± 0.2 | 3.83 ± 0.14
7 | QTGEWQNIAIMTEEPELSPAYLIS [GFOD1] | 3.05 ± 0.17 | 3.25 ± 0.22
8 | VHLLLKKVLFALCALNALTTTVCL [FAM189A2] | 3.48 ± 0.24 | 3.02 ± 0.36
9 | VTGEKEEPSRSASEADSEAGELRK [PPEF2] | 5.35 ± 0.61 | 5.5 ± 0.29
10 | PPLSGALASITETIQVHRRYWRSL [HDAC6] | 2.99 ± 0.33 | 3.15 ± 0.4
11 | WSGEVKDKNVQVVELPIVDSLHPR [FUT8] | 4.17 ± 0.17 | 4.29 ± 0.15
12 | KKINSNQLENEQSQENSINPIQKE [SPANXN3] | 5.66 ± 0.29 | 5.58 ± 0.26
13 | EPGNFIPLFTPQSPVTATLSDEDD [CDC25A] | 5.56 ± 0.18 | 5.69 ± 0.13
14 | VSGGSAGGYGGGVSCGFGGGAGSG [KRT13] | 3.47 ± 0.38 | 3.55 ± 0.19
15 | YYVLEPRVVDGTPCSPDSSSVCVQ [ADAMTS4] | 3.33 ± 0.35 | 3.21 ± 0.28
16 | SMKGSCGIGGGIGGGSSRISSVLA [KRT16] | 2.54 ± 0.42 | 2.64 ± 0.33

Row | Sequence | protein stability index (treatment: DMSO) | protein stability index (treatment: MLN4924 1 uM, 8 h)
17 | LEAQVESLKEELMCLKKNHEEEVS [KRT36] | 5.47 ± 0.42 | 5.46 ± 0.15
18 | YTATEQEMQQQMSLGELCHPVPLS [TRIM14] | 4.26 ± 0.23 | 4.14 ± 0.27
19 | PGPVCQPPVSQSRSLFSSVPSKPP [ANKRD40] | 4.34 ± 0.39 | 4.54 ± 0.48
20 | GGFLSESKDCKPPVYLLLELEDKD [MYBL2] | 3.99 ± 0.21 | 4.17 ± 0.32
21 | SEATLPAQMSTLHVSPPPSADPAR [PDLIM4] | 5.26 ± 0.17 | 5.17 ± 0.18
22 | GVVVCEADTGRIHRFVEKPQVFVS [GMPPB] | 2.25 ± 0.19 | 2.28 ± 0.3
23 | ILFLVIGGMLNFMMHDQRTGPAWN [SOAT2] | 3.27 ± 0.46 | 3.26 ± 0.55
24 | LENAEVLELTVRRVQGVLRGRARE [HES6] | 3.81 ± 0.33 | 3.88 ± 0.19
25 | LHKQTASDLLDEKEIAKNLIQPIN [FEM1C] | 3.38 ± 0.22 | 3.89 ± 0.18
26 | FLCVLMSDWFNFHGHMCIAFELLG [CLK3] | 3.2 ± 0.3 | 3.11 ± 0.42
27 | LSQPVTYQAFRECTLETTVHASGW [BCL2L13] | 2.44 ± 0.46 | 2.48 ± 0.4
28 | EMQIENLKEELAYLKKNHEEEMNA [KRT17] | 4.67 ± 0.24 | 4.88 ± 0.33
29 | GEREAIQKSVTRSCLLEEEEESGE [POP5] | 5.53 ± 0.33 | 5.65 ± 0.18
30 | IIIRSEVPGIFCAGADLKERAKMS [AUH] | 2.36 ± 0.43 | 1.95 ± 0.21
31 | YRHQRLHTGERPYECTVCKKRFTR [ZNF449] | 2.75 ± 0.56 | 3.5 ± 0.53
32 | PVHIHPAFARQAAQEPSAVPRAGP [FOXJ1] | 4.45 ± 0.088 | 4.22 ± 0.15
